Consider eight molecules from US20150344570A1 (published 2015).

The target of test [1] is T1, FcγRIIb extracellular domain with C-terminal His tag (human, UniProt P31994 43-217).
T1 construct: extracellular domain; also called 2b; FcgRIIb
T1 sequence (looked up): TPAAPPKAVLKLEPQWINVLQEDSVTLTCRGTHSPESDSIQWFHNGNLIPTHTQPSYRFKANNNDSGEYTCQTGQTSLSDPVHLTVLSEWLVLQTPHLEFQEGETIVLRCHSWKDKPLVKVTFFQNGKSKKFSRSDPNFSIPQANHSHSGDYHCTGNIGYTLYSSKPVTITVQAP
As to the kind of experiment: SPR, binding relative to GpH7-A5/GpH7-B3/GpL16-k0 = 100. As for the experimental part:
(§1) The heterodimerized antibodies He Abs in which one of the H chains was introduced with an alteration were assayed for their binding activities to each activating FcγR and inhibitory FcγR according to the method described in Example 4. […] The activating FcγRs in FIGS. 26, 27, 28, and 29 are FcγRIa, FcγRIIa (R), FcγRIIa (H), and FcγRIIIa, respectively.
(§2) Analysis of interaction between objective antibody and the FcγR was carried out using Biacore T100 (GE Healthcare). HBS-EP+ (GE Healthcare) was used as the running buffer, and the measurement temperature was set to 25° C. Chips produced by immobilizing the antigen peptide by the amine coupling method to a Series S Sencor Chip CM5 (GE Healthcare), or alternatively, chips produced by allowing preliminarily biotinylated antigen peptides to interact with and immobilize onto a Series S Sensor Chip SA (certified) (GE Healthcare) were used. Antibodies of interest were captured onto an antigen peptide-immobilized chip, and allowed to interact to each FcγR diluted with running buffer. To regenerate and repeatedly use the chip, the antibodies captured on the chip were washed off by reacting 10 mM glycine-HCl, pH 1.5.
For orientation: SPR reads the build-up and loss of mass on a sensor chip optically.

Test [2] deals with T2, FcγRIIIa extracellular domain with C-terminal His tag (human, UniProt P08637 17-208).
T2 construct: extracellular domain; also called 3a; FcgRIIIa
T2 sequence (P08637 17-208): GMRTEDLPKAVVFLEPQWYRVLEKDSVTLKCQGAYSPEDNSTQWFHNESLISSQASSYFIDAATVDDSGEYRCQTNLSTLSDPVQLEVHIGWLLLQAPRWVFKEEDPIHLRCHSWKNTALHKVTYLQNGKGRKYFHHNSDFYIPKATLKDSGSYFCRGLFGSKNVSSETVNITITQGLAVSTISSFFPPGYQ
Described as above. As for the experimental part:
as §1, §2

In the next test the target is T3, FcγRIIb (human, UniProt P31994 43-217).
T3 construct: extracellular domain; also called FcgRIIb; 2b
T3 sequence (looked up): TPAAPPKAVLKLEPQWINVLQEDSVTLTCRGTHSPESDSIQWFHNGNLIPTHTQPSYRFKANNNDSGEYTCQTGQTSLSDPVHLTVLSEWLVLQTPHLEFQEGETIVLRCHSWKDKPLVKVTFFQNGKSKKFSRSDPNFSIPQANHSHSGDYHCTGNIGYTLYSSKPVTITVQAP
As to the kind of experiment: SPR (Biacore), relative binding.

Another test has as its target T4, FcγRIIIa (human, UniProt P08637 17-208).
T4 construct: extracellular domain; also called FcgRIIIa; 3a
The test is described as follows: SPR (Biacore), relative binding.

T4 sequence (P08637 17-208): as the sequence (P08637 17-208) above

B1: GpH7-A5/GpH7-B3 variant L234_04F/GpL16-k0 (antibody, human IgG1, kappa)
heavy 1: not shown
heavy 2: not shown
light: DIVMTQSPLSLPVTPGEPASISCQASESLVHSNRNTYLHWYLQKPGQSPQLLIYKVSNRFSGVPDRFSGSGSGTDFTLKISRVEAEDVGVYYCSQNTHVPPTFGQGTKVEIERTVAAPSVFIFPPSDEQLKSGTASVVCLLNNFYPREAKVQWKVDNALQSGNSQESVTEQDSKDSTYSLSSTLTLSKADYEKHKVYACEVTHQGLSSPVTKSFNRGEC
notes: also called He Ab
B1: the He/Con_2b in test [1] is 99.8 % of control. Further, in test [2], the He/Con_3a is 118 % of control.

B2: GpH7-A5/GpH7-B3 variant A330_04F/GpL16-k0 (antibody, human IgG1, kappa)
heavy 1: not shown
heavy 2: not shown
light: DIVMTQSPLSLPVTPGEPASISCQASESLVHSNRNTYLHWYLQKPGQSPQLLIYKVSNRFSGVPDRFSGSGSGTDFTLKISRVEAEDVGVYYCSQNTHVPPTFGQGTKVEIERTVAAPSVFIFPPSDEQLKSGTASVVCLLNNFYPREAKVQWKVDNALQSGNSQESVTEQDSKDSTYSLSSTLTLSKADYEKHKVYACEVTHQGLSSPVTKSFNRGEC
notes: also called He Ab
On to B2, for which, in test [1], the He/Con_2b is 92.8 % of control. Besides, the He/Con_3a in test [2] was 147 % of control.

B3: GpH7-A5/GpH7-B3 variant S337_07I/GpL16-k0 (antibody, human IgG1, kappa)
heavy 1: not shown
heavy 2: not shown
light: DIVMTQSPLSLPVTPGEPASISCQASESLVHSNRNTYLHWYLQKPGQSPQLLIYKVSNRFSGVPDRFSGSGSGTDFTLKISRVEAEDVGVYYCSQNTHVPPTFGQGTKVEIERTVAAPSVFIFPPSDEQLKSGTASVVCLLNNFYPREAKVQWKVDNALQSGNSQESVTEQDSKDSTYSLSSTLTLSKADYEKHKVYACEVTHQGLSSPVTKSFNRGEC
notes: mutation in the GpH7-B3 chain only; also called He Ab
As to B3, the He/Con_2b in the test with FcγRIIb was 104 % of GpH7-A5/GpH7-B3/GpL16-k0. Besides, the He/Con_3a in the test with FcγRIIIa is 94.8 % of GpH7-A5/GpH7-B3/GpL16-k0.

B4: GpH7-A5/GpH7-B3 variant P331_10E/GpL16-k0 (antibody, human IgG1, kappa)
heavy 1: not shown
heavy 2: not shown
light: DIVMTQSPLSLPVTPGEPASISCQASESLVHSNRNTYLHWYLQKPGQSPQLLIYKVSNRFSGVPDRFSGSGSGTDFTLKISRVEAEDVGVYYCSQNTHVPPTFGQGTKVEIERTVAAPSVFIFPPSDEQLKSGTASVVCLLNNFYPREAKVQWKVDNALQSGNSQESVTEQDSKDSTYSLSSTLTLSKADYEKHKVYACEVTHQGLSSPVTKSFNRGEC
notes: as for B3
Take B4: the He/Con_2b in the test with FcγRIIb was 116 % of GpH7-A5/GpH7-B3/GpL16-k0. In the test with FcγRIIIa, the He/Con_3a was 75.1 % of GpH7-A5/GpH7-B3/GpL16-k0.

B5: GpH7-A5/GpH7-B3 variant A330_06M/GpL16-k0 (antibody, human IgG1, kappa)
heavy 1: not shown
heavy 2: not shown
light: DIVMTQSPLSLPVTPGEPASISCQASESLVHSNRNTYLHWYLQKPGQSPQLLIYKVSNRFSGVPDRFSGSGSGTDFTLKISRVEAEDVGVYYCSQNTHVPPTFGQGTKVEIERTVAAPSVFIFPPSDEQLKSGTASVVCLLNNFYPREAKVQWKVDNALQSGNSQESVTEQDSKDSTYSLSSTLTLSKADYEKHKVYACEVTHQGLSSPVTKSFNRGEC
notes: also called He Ab
Regarding B5, in test [1], the He/Con_2b is 80.5 % of control. For the same molecule, the He/Con_3a in test [2] is 142 % of control.

B6: GpH7-A5/GpH7-B3 variant P331_03V/GpL16-k0 (antibody, human IgG1, kappa)
heavy 1: not shown
heavy 2: not shown
light: DIVMTQSPLSLPVTPGEPASISCQASESLVHSNRNTYLHWYLQKPGQSPQLLIYKVSNRFSGVPDRFSGSGSGTDFTLKISRVEAEDVGVYYCSQNTHVPPTFGQGTKVEIERTVAAPSVFIFPPSDEQLKSGTASVVCLLNNFYPREAKVQWKVDNALQSGNSQESVTEQDSKDSTYSLSSTLTLSKADYEKHKVYACEVTHQGLSSPVTKSFNRGEC
notes: as for B3
Regarding B6, the He/Con_2b with FcγRIIb is 119 % of GpH7-A5/GpH7-B3/GpL16-k0. Moreover, in the test with FcγRIIIa, the He/Con_3a was 73.2 % of GpH7-A5/GpH7-B3/GpL16-k0.

B7: GpH7-A5/GpH7-B3 variant P331_06M/GpL16-k0 (antibody, human IgG1, kappa)
heavy 1: not shown
heavy 2: not shown
light: DIVMTQSPLSLPVTPGEPASISCQASESLVHSNRNTYLHWYLQKPGQSPQLLIYKVSNRFSGVPDRFSGSGSGTDFTLKISRVEAEDVGVYYCSQNTHVPPTFGQGTKVEIERTVAAPSVFIFPPSDEQLKSGTASVVCLLNNFYPREAKVQWKVDNALQSGNSQESVTEQDSKDSTYSLSSTLTLSKADYEKHKVYACEVTHQGLSSPVTKSFNRGEC
notes: as for B3
Turning to B7, the He/Con_2b in the test with FcγRIIb was 102 % of GpH7-A5/GpH7-B3/GpL16-k0. Moreover, in the test with FcγRIIIa, the He/Con_3a is 74.8 % of GpH7-A5/GpH7-B3/GpL16-k0.

B8: GpH7-A5/GpH7-B3 variant T335_04F/GpL16-k0 (antibody, human IgG1, kappa)
heavy 1: not shown
heavy 2: not shown
light: DIVMTQSPLSLPVTPGEPASISCQASESLVHSNRNTYLHWYLQKPGQSPQLLIYKVSNRFSGVPDRFSGSGSGTDFTLKISRVEAEDVGVYYCSQNTHVPPTFGQGTKVEIERTVAAPSVFIFPPSDEQLKSGTASVVCLLNNFYPREAKVQWKVDNALQSGNSQESVTEQDSKDSTYSLSSTLTLSKADYEKHKVYACEVTHQGLSSPVTKSFNRGEC
notes: as for B3
In the case of B8, the He/Con_2b with FcγRIIb was 103 % of GpH7-A5/GpH7-B3/GpL16-k0. Moreover, the He/Con_3a with FcγRIIIa was 96 % of GpH7-A5/GpH7-B3/GpL16-k0.
